From patent publication US20120114639A1, “COMPOSITIONS AND METHODS FOR INHIBITING VIRAL AND/OR BACTERIAL INFECTIONS” (priority 2010, published 2012)

System: HPV16
Assay: HPV16 PsV infection of HaCaT cells, luciferase assay
Type: cell-based, human papillomavirus
Protocol: FIG. 2. […] (A, B) Immunoblot for syndecan-1 (polyclonal syndecan-1 Ab) after 24 hours at 37° C. in CM (A) or post starvation in SFM and after six hours at 37° C. in Tyrode's Buffer (B); immunoblot for HPV16 L1 released into CM post virus binding for indicated times (C) or 24 hours (E). […] Cells were untreated (U) or pre-treated with BM or MM for one hour, then exposed to HPV16 PsV in the presence of inhibitors in CM. Infection was assayed by quantifying luciferase levels at 24 hours p.i. (F). Data are represented as mean±SEM of three experiments. (G-H) IC50 of HPV16 infectivity inhibition by MMIP inhibitors batimastat and mariniastat. […] HPV16 infection was measured with luciferase assay. […]
FIG. 7. […] Cells were exposed to HPV16 PsV at 100 vge/cell for one hour at 4° C., then washed extensively and shifted to 37° C. in the presence of the indicated inhibitor in CM for 24 hours at which time they were analyzed for luciferase expression. […] (B-C) EGFR knockdown was accomplished using siRNA to EGFR and the percent of EGFR protein remaining in EGFR-siRNA transfected HaCaT cells was determined by immunoblot and compared by densitometry to EGFR levels in cells transfected with a negative control siRNA at 48 hours post transfection. Four separate transfections were analyzed (B) and HPV16 PsV infection levels were measured at 24 hours post infection (48 hours post transfection) in each (C). […]

B1: KGF: keratinocyte growth factor, GFR ligand (protein, UniProt P21781 32-194, looked up)
Fibroblast growth factor 7: CNDMTPEQMATNVNCSSPERHTRSYDYMEGGDIRVRRLFCRTQWYLRIDKRGKVKGTQEMKNNYNIMEIRTVAVGIVAIKGVESEFYLAMNKEGKLYAKKECNEDCNFKELILENHYNTYASAKWTHNGGEMFVALNQKGIPVRGKKTKKEQKTAHFLPMAIT
restoration of HPV16 infectivity in SFM by added factor (serum-starved HaCaT, HPV16 bound in SFM, 24 hours in SFM plus factor, compared to CM): partially restore infection levels

B2: TIMP3: blocks MMP activity (protein, UniProt P35625 24-211, looked up)
Metalloproteinase inhibitor 3: CTCSPSHPQDAFCNSDIVIRAKVVGKKLVKEGPFGTLVYTIKQMKMYRGFTKMPHVQYIHTEASESLCGLKLEVNKYQYLLTGRVYDGKMYTGLCNFVERWDQLTLSQRKGLNYRYHLGCNCKIKSCYYLPCFVTSKNECLWTDMLSNFGYPGYQSKHYACIRQKGGYCSWYRGWAPPDKSIINATDP
HPV16 infection of HaCaT cells (in words) (CM, luciferase 24 hours p.i.): can prevent HPV16 infection
